The results in this text go back to the supplement of paper PMC6755084.

The labels stand for the following.
B1: minF1; a variant is named by its letters at N, in order (parent)
chain: GAGACCGCAACTGAAAAGTTGTTNNNNAANNNNGGNTNNATTTCTGCACGTAGAAGCAAAAGGC

The series covers variants of B1. Nature of the series: fraction ligated after 30 min (ligated reads / total reads); higher = more ligase activity. Conditions: with F1*subA RNA substrate (template-directed ligation), 42 °C. How it is done: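 Chip-synthesised pool of minF1 ligase ribozyme variants (single and double substitutions, single to quadruple deletions, bulge and P2 designed variants) was transcribed with T7 and reacted as a pool with excess substrate F1*subA for 30 min at 42 C in 50 mM EPPS pH 8.5, 25 mM MgCl2. Ligated and unligated RNAs were separated by PAGE, barcoded by RT and deep sequenced; fraction ligated = ligated reads / total reads, relative activity = FL / FL of wild-type minF1 (0.76); sequencing FL correlated with PAGE (R2 = 0.98). Sequences are the DNA template of the ribozyme.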
Take ATCAAATGGTT A28G G34A T37G A40G: the fraction ligated amounted to 0.000551.

Regarding TAGAGATGTGA T23A A28T A29G, the fraction ligated worked out at 0.00684.

Consider TCAGTGGAGTT G34T T37G, for which the fraction ligated was 0.00084.

As for ACAGATGAGTA G34T, the fraction ligated was 0.00197.

With ATAGGGAGTGA A29T, the fraction ligated worked out at 0.00713.

As to TAGAGGATGTG A29T, the fraction ligated is 0.0045.

For TCGAGATGTGA T23A A29G, the fraction ligated stood at 0.00586.

Turning to TCGAGATGTGA T23A A29T, the fraction ligated is 0.00198.

CAAAGATGTGA T23A A29T: the fraction ligated was determined as 0.00168.

For the variant CAAAGGATGTA A29T, the fraction ligated was determined as 0.00185.

Regarding ATCGAATGTGA, the fraction ligated worked out at 0.00581.

Consider ATAGTGATGTG, for which the fraction ligated worked out at 0.00732.

With CAGAGGATGTG, the fraction ligated was 0.00526.

As to ACAGATGAGTG G34T, the fraction ligated amounted to 0.00398.

For ATGAGGTGTGA A29T, the fraction ligated was 0.00679.

Regarding TAGATGATGTA T23A, the fraction ligated was 0.00397.

With ATCAGGAGTGA A29T, the fraction ligated came out at 0.00323.

Turning to ATAGGGATGTA A29T, the fraction ligated worked out at 0.00166.

For the variant ATCATGATTGA A28G, the fraction ligated came to 0.00281.

Turning to TAAAGGTGTGA A29T, the fraction ligated came out at 0.0019.

On to CGAAGATGTGA T23A A28T A29G, for which the fraction ligated came to 0.00787.

For AAGATATGTGA, the fraction ligated came out at 0.00183.

ATCAATGTGTA A28G: the fraction ligated turned out to be 0.00287.

For the variant ATAGATGTGTG, the fraction ligated was 0.00629.

Take ATAGATGTGTA: the fraction ligated came to 0.00402.

Consider CAGATGGAGTT G34T T37G A40G, for which the fraction ligated is 0.000312.

Take TCAGATGAGTT T23A G34T T37G: the fraction ligated came to 0.00034.

Take TAGATGGAGTG T23A: the fraction ligated is 0.00424.

For the variant TCAAGGAGTGA T23A, the fraction ligated came to 0.00195.

With ATGATGGTTGA, the fraction ligated came to 0.00283.

On to TCAGATGAGTA T23A G34T, for which the fraction ligated turned out to be 0.00285.

As to TAAAGGATGTA A29T, the fraction ligated was 0.00265.

On to TCAGATGGGTT T23A G34A T37G A40G, for which the fraction ligated stood at 0.

Take ACAGAGATGTG: the fraction ligated was 0.00764.

ATCAAATTTGA A28G: the fraction ligated was 0.00721.

As to TAGATGGAGTT G34T T37G, the fraction ligated stood at 0.00107.

Consider CGAAGATGTGA A29G, for which the fraction ligated came to 0.00313.

As for CGAAGATGTGA A29T, the fraction ligated was determined as 0.00363.

As to ATAGAGGAGTT G34T T37G, the fraction ligated is 0.00132.

Turning to ATCATGTGTGA A28G, the fraction ligated is 0.00186.

Take ATGATATGTGA: the fraction ligated came out at 0.00429.

Consider ACGAGGATGTA, for which the fraction ligated turned out to be 0.00292.

On to AAGATGGTTGA, for which the fraction ligated is 0.00185.

For ATAGATGGGTT G34A G35T T37G A40G, the fraction ligated amounted to 0.00103.

Regarding TCAAGGTGTGA, the fraction ligated turned out to be 0.00226.

Regarding ATCAATGGGTA A28G G34A, the fraction ligated amounted to 0.00228.

For the variant TAGAGATGTGA T23A A29T, the fraction ligated was determined as 0.00334.

Turning to CAGAGGATGTA T23A, the fraction ligated is 0.00339.

Consider CGAAGGTGTGA A29T, for which the fraction ligated turned out to be 0.00384.

On to ACGATGGGTGA, for which the fraction ligated was determined as 0.00155.

For the variant TAGAGATGTGA T23A, the fraction ligated was 0.00319.

Regarding ACAGAGATTGA, the fraction ligated came to 0.00246.

Take ACGAGGTGTGA A29T: the fraction ligated is 0.00316.

Consider ATCAGGATGTG A28G A29T, for which the fraction ligated amounted to 0.00377.

On to ATAATGGTTGA, for which the fraction ligated was 0.00319.

On to ATGATGATGTA, for which the fraction ligated stood at 0.00247.

In the case of TCAAGGATGTG A29T, the fraction ligated was 0.00632.

Regarding CAAAGGTGTGA T23A A29T, the fraction ligated was 0.00303.

Take ACAGGGAGTGA: the fraction ligated stood at 0.00202.

For ATAGATATTGA, the fraction ligated is 0.00398.

ATCATGAGTGA A28G: the fraction ligated is 0.00204.

For the variant TCAAGATGTGA T23A A29T, the fraction ligated stood at 0.00239.

Take TCAAGATGTGA T23A A29G: the fraction ligated turned out to be 0.00178.

Turning to ACAGATGGGTT G34A T37G A40G, the fraction ligated was 0.000615.

On to TCAGATAGTGA, for which the fraction ligated came out at 0.00299.

As to ATCAAATGGTT A28G G35A T37G A40G, the fraction ligated is 0.00174.

On to CAGATGGAGTA T23A G34T, for which the fraction ligated is 0.00843.

In the case of ATCAGATGTGA, the fraction ligated was 0.00333.

As for TAAAGATGTGA T23A A28T A29G, the fraction ligated is 0.00461.

Turning to TCGAGGAGTGA A29T, the fraction ligated worked out at 0.00284.

Consider ATCGGATGTGA, for which the fraction ligated turned out to be 0.00494.

As for ACAAGATGTGA, the fraction ligated was determined as 0.00207.

Turning to ATCATGAGTGA, the fraction ligated stood at 0.00331.

In the case of AAGAGGATGTG, the fraction ligated amounted to 0.00366.

With ACGAGGTGTGA, the fraction ligated is 0.00342.

TCAGGGAGTGA T23A A29T: the fraction ligated was 0.000582.

As to TCGAGGATTGA T23A, the fraction ligated is 0.00135.

On to ATCGGATGTGA A29G, for which the fraction ligated is 0.00359.

On to ATCAAATGTGA, for which the fraction ligated worked out at 0.00252.

For TAGAGGATGTA A29T, the fraction ligated amounted to 0.00262.

Take CAGAGATGTGA A28T A29G: the fraction ligated was determined as 0.00451.

TGAAGGTGTGA A29T: the fraction ligated was 0.00178.

For ATCAATGAGTT G34T T37G A40G, the fraction ligated was 0.00152.
